Results on 18 substances are retold here after patent US9260501B2, “Peptide extended insulins” (priority 2006, dated 2016).

The target of the first assay is human insulin receptor (Homo sapiens, UniProt P06213). The assay is described as follows: Insulin receptor binding, SPA (Scintillation Proximity Assay) microtiterplate antibody capture assay. Particulars: binding affinity relative to that of human insulin; purified recombinant human insulin receptor minus exon 11; A14 Tyr[125I]-human insulin tracer. In general terms: SPA uses beads or plates that emit light when radiolabelled molecules are held near them.
human insulin receptor, sequence (P06213 28-746 isoform P06213-2 limits assumed): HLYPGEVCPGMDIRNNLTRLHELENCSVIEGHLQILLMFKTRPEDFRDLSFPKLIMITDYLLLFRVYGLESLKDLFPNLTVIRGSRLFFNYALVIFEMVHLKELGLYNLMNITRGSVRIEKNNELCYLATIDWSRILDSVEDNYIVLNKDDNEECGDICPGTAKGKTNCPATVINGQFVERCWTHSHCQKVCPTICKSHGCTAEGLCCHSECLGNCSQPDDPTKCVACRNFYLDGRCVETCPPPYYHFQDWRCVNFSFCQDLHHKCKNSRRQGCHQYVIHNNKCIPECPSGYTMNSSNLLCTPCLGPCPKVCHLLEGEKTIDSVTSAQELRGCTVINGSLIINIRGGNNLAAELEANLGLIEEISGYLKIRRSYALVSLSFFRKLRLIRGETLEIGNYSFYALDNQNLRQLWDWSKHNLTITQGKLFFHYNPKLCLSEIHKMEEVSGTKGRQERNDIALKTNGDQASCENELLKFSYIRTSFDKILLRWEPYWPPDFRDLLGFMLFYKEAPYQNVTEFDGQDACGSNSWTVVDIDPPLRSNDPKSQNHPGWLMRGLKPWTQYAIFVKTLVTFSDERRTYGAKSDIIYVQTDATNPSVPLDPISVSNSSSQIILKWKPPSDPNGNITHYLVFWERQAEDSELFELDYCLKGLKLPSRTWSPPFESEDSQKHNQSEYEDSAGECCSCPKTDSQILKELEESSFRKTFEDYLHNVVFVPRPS
human insulin receptor, sequence (P06213 763-1382 partner limits assumed): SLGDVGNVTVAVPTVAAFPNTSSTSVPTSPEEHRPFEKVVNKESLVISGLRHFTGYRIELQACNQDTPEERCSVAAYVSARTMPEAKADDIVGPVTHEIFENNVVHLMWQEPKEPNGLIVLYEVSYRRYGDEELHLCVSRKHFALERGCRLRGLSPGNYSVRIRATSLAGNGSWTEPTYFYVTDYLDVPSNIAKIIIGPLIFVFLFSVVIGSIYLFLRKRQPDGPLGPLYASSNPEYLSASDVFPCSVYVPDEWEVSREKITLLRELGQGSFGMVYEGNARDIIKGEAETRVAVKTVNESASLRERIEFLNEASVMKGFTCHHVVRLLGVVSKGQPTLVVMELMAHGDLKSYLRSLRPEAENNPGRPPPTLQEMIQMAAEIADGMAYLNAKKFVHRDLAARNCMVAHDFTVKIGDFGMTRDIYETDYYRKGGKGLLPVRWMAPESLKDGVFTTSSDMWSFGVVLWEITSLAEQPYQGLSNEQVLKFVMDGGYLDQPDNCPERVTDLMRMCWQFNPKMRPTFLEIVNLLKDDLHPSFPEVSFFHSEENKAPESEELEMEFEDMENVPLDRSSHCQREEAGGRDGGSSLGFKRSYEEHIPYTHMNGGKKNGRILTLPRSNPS
Description: These extended insulins were tested for biological insulin activity as measured by binding affinity to the human insulin receptor relative to that of human insulin as described below.
Insulin Receptor Binding of the Insulins of the Invention
The affinity of the insulins of the invention for the human insulin receptor can be determined by a SPA assay (Scintillation Proximity Assay) microtiterplate antibody capture assay. […] Reagent mix for a single Packard Optiplate (Packard No. 6005190) is composed of 2.4 μl of a 1:5000 diluted purified recombinant human insulin receptor − (minus) exon 11, an amount of a stock solution of A14 Tyr[125I]-human insulin corresponding to 5000 cpm per 100 μl of reagent mix, 12 μl of a 1:1000 dilution of F12 antibody, 3 ml of SPA-beads and binding buffer to a total of 12 ml. A total of 100 μl is then added and a dilution series is made from appropriate samples. To the dilution series is then added 100 μl of reagent mix and the samples are incubated for 16 hours while gently shaken. The phases are then separated by centrifugation for 1 min and the plates counted in a Top-counter. The binding data are fitted using the nonlinear regression algorithm in the GraphPad Prism 2.01 (GraphPad Software, San Diego, Calif.).
“A14E, A21Q, A22-A62G, B25H, desB30 Human Insulin [Example 20]”: the “Relative insulin receptor binding” value worked out at 2%.

In another assay the target is purified recombinant human insulin receptor - (minus) exon 11 (human) (UniProt P06213). Briefly: SPA antibody-capture competition assay, displacement of A14 Tyr[125I]-human insulin from recombinant human insulin receptor minus exon 11; affinity relative to human insulin.
Conditions: not given
For “A14E, A21Q, A22-A45G, B25H, desB30 Human Insulin (from UniProt P01308) (ligand)”, the Relative insulin receptor binding came out at 12%.
On the same count and under the same terms, as for “A14E, A21Q, A22-A45G, B(-6)-(-1)G, B25H, desB30 Human Insulin (from UniProt P01308) (ligand)”, the figure is 10%; as for “A14E, A21Q, A22-A45G, B(-12)-(-1)G, B25H, desB30 Human Insulin (from UniProt P01308) (ligand)”, 11%; as for “A14E, A21Q, A22-A45G, B(-18)-(-1)G, B25H, desB30 Human Insulin (from UniProt P01308) (ligand)”, 7.2%.
In the case of “A14E, A21Q, A22-A57G, B25H, desB30 Human Insulin (from UniProt P01308) (ligand)”, the Relative insulin receptor binding is 14%.
Still for that read-out and setting: next, “A14E, A21Q, A22-A62G, B25H, desB30 Human Insulin (from UniProt P01308) (ligand)”: 2%.
For the substance “A14E, A21Q, A22G-A51G, B25H, desB30 Human Insulin (from UniProt P01308) (ligand)”, the Relative insulin receptor binding is 12%.
On to “A21Q, A22-A45G, B(-6)-(-1G), desB30 Human Insulin (from UniProt P01308) (ligand)”, for which the Relative insulin receptor binding worked out at 14%.
Turning to “A21Q, A22-A45G, B(-12)-(-1)G, desB30 Human Insulin (from UniProt P01308) (ligand)”, the Relative insulin receptor binding was 16%.
For “A21Q, A22-A45G, B(-18)-(-1)G, desB30 Human Insulin (from UniProt P01308) (ligand)”, the Relative insulin receptor binding was 13%.
Regarding “A21Q, A22-A45G, desB30 Human Insulin (from UniProt P01308) (ligand)”, the Relative insulin receptor binding was determined as 14%.
Turning to “A21Q, A22-A51G, desB30 Human Insulin (from UniProt P01308) (ligand)”, the Relative insulin receptor binding is 17%.
In the case of “A21Q, A22-A57G, desB30 Human Insulin (from UniProt P01308) (ligand)”, the Relative insulin receptor binding is 20%.
Turning to “A22-27G desB30 Human Insulin (from UniProt P01308) (ligand)”, the Relative insulin receptor binding is 44%.
In the case of “A22-33G desB30 Human Insulin (from UniProt P01308) (ligand)”, the Relative insulin receptor binding stood at 41%.
As for “A22-39G desB30 Human Insulin (from UniProt P01308) (ligand)”, the Relative insulin receptor binding was found to be 30%.
The same measure, in the same setting: next, “A22-45G desB30 Human Insulin (from UniProt P01308) (ligand)”: 25%.
